Laboratory results as given in US20140087995A1 (published 2014).
Numbered stars: 1 amine (or outer) side, 2 acyl side, 3 side chain; on linkers, the order of the positions; unused ones are H or OH. Bridge positions count the residues as written; N and C are the ends. Side chains are listed from the residue outwards. Ends that are not written are not given here. * marks the point of attachment. C20 diacid = O=C(O)CCCCCCCCCCCCCCCCCCC(=O)*; γGlu = O=C(O)[C@H](CCC(=O)[*:2])N[*:1]; AEEA = NCCOCCOCC(=O)O

T1: human calcitonin receptor (human, UniProt P30988 25-474)
T1 sequence (looked up): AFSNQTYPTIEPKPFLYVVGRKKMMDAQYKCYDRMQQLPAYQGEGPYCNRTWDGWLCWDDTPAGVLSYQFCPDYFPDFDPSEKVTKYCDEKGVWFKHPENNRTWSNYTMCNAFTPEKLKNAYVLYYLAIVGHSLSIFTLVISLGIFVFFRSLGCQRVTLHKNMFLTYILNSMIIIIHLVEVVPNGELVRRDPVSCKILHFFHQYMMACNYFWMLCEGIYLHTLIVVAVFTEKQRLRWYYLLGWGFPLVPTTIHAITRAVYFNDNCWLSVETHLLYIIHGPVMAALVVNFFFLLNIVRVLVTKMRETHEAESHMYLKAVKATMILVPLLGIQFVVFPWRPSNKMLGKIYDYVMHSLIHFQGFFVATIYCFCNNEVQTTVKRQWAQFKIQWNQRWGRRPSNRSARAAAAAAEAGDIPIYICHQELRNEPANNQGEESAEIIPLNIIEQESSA


Target: T1, human calcitonin receptor
Assay: cell-based or functional assay

Row | Binder | hCTR funct. EC50 [nM]
1 | {C20 diacid-γGlu}-KCNTATCATQRLAEFLRHSSPNFGAIPSSTNVGKNTY-NH2 (disulfide 2-7; SMILES CC[C@H](C)[C@H](NC(=O)[C@H](C)NC(=O)CNC(=O)[C@H](Cc1ccccc1)NC(=O)[C@H](CC(N)=O)NC(=O)[C@@H]1CCCN1C(=O)[C@H](CO)NC(=O)[C@H](CO)NC(=O)[C@H](Cc1c[nH]cn1)NC(=O)[C@H](CCCNC(=N)N)NC(=O)[C@H](CC(C)C)NC(=O)[C@H](Cc1ccccc1)NC(=O)[C@H](CCC(=O)O)NC(=O)[C@H](C)NC(=O)[C@H](CC(C)C)NC(=O)[C@H](CCCNC(=N)N)NC(=O)[C@H](CCC(N)=O)NC(=O)[C@@H](NC(=O)[C@H](C)NC(=O)[C@@H]1CSSC[C@H](NC(=O)[C@H](CCCCN)NC(=O)CC[C@H](NC(=O)CCCCCCCCCCCCCCCCCCC(=O)O)C(=O)O)C(=O)N[C@@H](CC(N)=O)C(=O)N[C@@H]([C@@H](C)O)C(=O)N[C@@H](C)C(=O)N[C@@H]([C@@H](C)O)C(=O)N1)[C@@H](C)O)C(=O)N1CCC[C@H]1C(=O)N[C@@H](CO)C(=O)N[C@@H](CO)C(=O)N[C@H](C(=O)N[C@@H](CC(N)=O)C(=O)N[C@H](C(=O)NCC(=O)N[C@@H](CCCCN)C(=O)N[C@@H](CC(N)=O)C(=O)N[C@H](C(=O)N[C@@H](Cc1ccc(O)cc1)C(N)=O)[C@@H](C)O)C(C)C)[C@@H](C)O, h-amylin derivative; disulfide bridge and C-terminal amide as told for human amylin; also called compound 36) | 1.28
2 | K([AEEA-C20 diacid])CNTATCATQRLANFLRHSSPNFGAIPSSTNVGSNTY-NH2 (disulfide 2-7; N-terminus assumed; SMILES CC[C@H](C)[C@H](NC(=O)[C@H](C)NC(=O)CNC(=O)[C@H](Cc1ccccc1)NC(=O)[C@H](CC(N)=O)NC(=O)[C@@H]1CCCN1C(=O)[C@H](CO)NC(=O)[C@H](CO)NC(=O)[C@H](Cc1c[nH]cn1)NC(=O)[C@H](CCCNC(=N)N)NC(=O)[C@H](CC(C)C)NC(=O)[C@H](Cc1ccccc1)NC(=O)[C@H](CC(N)=O)NC(=O)[C@H](C)NC(=O)[C@H](CC(C)C)NC(=O)[C@H](CCCNC(=N)N)NC(=O)[C@H](CCC(N)=O)NC(=O)[C@@H](NC(=O)[C@H](C)NC(=O)[C@@H]1CSSC[C@H](NC(=O)[C@@H](N)CCCCNC(=O)COCCOCCNC(=O)CCCCCCCCCCCCCCCCCCC(=O)O)C(=O)N[C@@H](CC(N)=O)C(=O)N[C@@H]([C@@H](C)O)C(=O)N[C@@H](C)C(=O)N[C@@H]([C@@H](C)O)C(=O)N1)[C@@H](C)O)C(=O)N1CCC[C@H]1C(=O)N[C@@H](CO)C(=O)N[C@@H](CO)C(=O)N[C@H](C(=O)N[C@@H](CC(N)=O)C(=O)N[C@H](C(=O)NCC(=O)N[C@@H](CO)C(=O)N[C@@H](CC(N)=O)C(=O)N[C@H](C(=O)N[C@@H](Cc1ccc(O)cc1)C(N)=O)[C@@H](C)O)C(C)C)[C@@H](C)O, h-amylin derivative; disulfide bridge and C-terminal amide as told for human amylin; also called compound 43) [N^ε1-[2-[2-[2-(19-carboxynonadecanoylamino)ethoxy]ethoxy]acetyl]-[Arg17,Pro21,Pro27]-h-amylin] | 0.92
3 | K([γGlu-C20 diacid])RCNTATCATQRLANFLRHSSPNFGAIPSSTNVGSHTY-NH2 (disulfide 3-8; N-terminus assumed; SMILES CC[C@H](C)[C@H](NC(=O)[C@H](C)NC(=O)CNC(=O)[C@H](Cc1ccccc1)NC(=O)[C@H](CC(N)=O)NC(=O)[C@@H]1CCCN1C(=O)[C@H](CO)NC(=O)[C@H](CO)NC(=O)[C@H](Cc1c[nH]cn1)NC(=O)[C@H](CCCNC(=N)N)NC(=O)[C@H](CC(C)C)NC(=O)[C@H](Cc1ccccc1)NC(=O)[C@H](CC(N)=O)NC(=O)[C@H](C)NC(=O)[C@H](CC(C)C)NC(=O)[C@H](CCCNC(=N)N)NC(=O)[C@H](CCC(N)=O)NC(=O)[C@@H](NC(=O)[C@H](C)NC(=O)[C@@H]1CSSC[C@H](NC(=O)[C@H](CCCNC(=N)N)NC(=O)[C@@H](N)CCCCNC(=O)CC[C@H](NC(=O)CCCCCCCCCCCCCCCCCCC(=O)O)C(=O)O)C(=O)N[C@@H](CC(N)=O)C(=O)N[C@@H]([C@@H](C)O)C(=O)N[C@@H](C)C(=O)N[C@@H]([C@@H](C)O)C(=O)N1)[C@@H](C)O)C(=O)N1CCC[C@H]1C(=O)N[C@@H](CO)C(=O)N[C@@H](CO)C(=O)N[C@H](C(=O)N[C@@H](CC(N)=O)C(=O)N[C@H](C(=O)NCC(=O)N[C@@H](CO)C(=O)N[C@@H](Cc1c[nH]cn1)C(=O)N[C@H](C(=O)N[C@@H](Cc1ccc(O)cc1)C(N)=O)[C@@H](C)O)C(C)C)[C@@H](C)O, h-amylin derivative, N-terminally extended by one residue; disulfide bridge and C-terminal amide as told for human amylin; also called compound 44) | 4.75
4 | {C20 diacid-γGlu}-GRCNTATCATQRLANFLRHSSPNFGAIPSSTNVGSNTY-NH2 (disulfide 3-8; SMILES CC[C@H](C)[C@H](NC(=O)[C@H](C)NC(=O)CNC(=O)[C@H](Cc1ccccc1)NC(=O)[C@H](CC(N)=O)NC(=O)[C@@H]1CCCN1C(=O)[C@H](CO)NC(=O)[C@H](CO)NC(=O)[C@H](Cc1c[nH]cn1)NC(=O)[C@H](CCCNC(=N)N)NC(=O)[C@H](CC(C)C)NC(=O)[C@H](Cc1ccccc1)NC(=O)[C@H](CC(N)=O)NC(=O)[C@H](C)NC(=O)[C@H](CC(C)C)NC(=O)[C@H](CCCNC(=N)N)NC(=O)[C@H](CCC(N)=O)NC(=O)[C@@H](NC(=O)[C@H](C)NC(=O)[C@@H]1CSSC[C@H](NC(=O)[C@H](CCCNC(=N)N)NC(=O)CNC(=O)CC[C@H](NC(=O)CCCCCCCCCCCCCCCCCCC(=O)O)C(=O)O)C(=O)N[C@@H](CC(N)=O)C(=O)N[C@@H]([C@@H](C)O)C(=O)N[C@@H](C)C(=O)N[C@@H]([C@@H](C)O)C(=O)N1)[C@@H](C)O)C(=O)N1CCC[C@H]1C(=O)N[C@@H](CO)C(=O)N[C@@H](CO)C(=O)N[C@H](C(=O)N[C@@H](CC(N)=O)C(=O)N[C@H](C(=O)NCC(=O)N[C@@H](CO)C(=O)N[C@@H](CC(N)=O)C(=O)N[C@H](C(=O)N[C@@H](Cc1ccc(O)cc1)C(N)=O)[C@@H](C)O)C(C)C)[C@@H](C)O, h-amylin derivative, N-terminally extended by one residue; disulfide bridge and C-terminal amide as told for human amylin; also called compound 46) [N^-1-[(4S)-4-carboxy-4-(19-carboxynonadecanoylamino)butanoyl]-Gly[Arg1,Arg17,Pro21,Pro27]-h-amylin] | 0.899

Other lines, results leading:

Row | hCTR funct. EC50 [nM] | Binder
5 | 10.1 | K([AEEA-γGlu-C20 diacid])RCNTATCATQRLANFLRHSSPNFGAIPSSTNVGSHTY-NH2 (disulfide 3-8; N-terminus assumed; SMILES CC[C@H](C)[C@H](NC(=O)[C@H](C)NC(=O)CNC(=O)[C@H](Cc1ccccc1)NC(=O)[C@H](CC(N)=O)NC(=O)[C@@H]1CCCN1C(=O)[C@H](CO)NC(=O)[C@H](CO)NC(=O)[C@H](Cc1c[nH]cn1)NC(=O)[C@H](CCCNC(=N)N)NC(=O)[C@H](CC(C)C)NC(=O)[C@H](Cc1ccccc1)NC(=O)[C@H](CC(N)=O)NC(=O)[C@H](C)NC(=O)[C@H](CC(C)C)NC(=O)[C@H](CCCNC(=N)N)NC(=O)[C@H](CCC(N)=O)NC(=O)[C@@H](NC(=O)[C@H](C)NC(=O)[C@@H]1CSSC[C@H](NC(=O)[C@H](CCCNC(=N)N)NC(=O)[C@@H](N)CCCCNC(=O)COCCOCCNC(=O)CC[C@H](NC(=O)CCCCCCCCCCCCCCCCCCC(=O)O)C(=O)O)C(=O)N[C@@H](CC(N)=O)C(=O)N[C@@H]([C@@H](C)O)C(=O)N[C@@H](C)C(=O)N[C@@H]([C@@H](C)O)C(=O)N1)[C@@H](C)O)C(=O)N1CCC[C@H]1C(=O)N[C@@H](CO)C(=O)N[C@@H](CO)C(=O)N[C@H](C(=O)N[C@@H](CC(N)=O)C(=O)N[C@H](C(=O)NCC(=O)N[C@@H](CO)C(=O)N[C@@H](Cc1c[nH]cn1)C(=O)N[C@H](C(=O)N[C@@H](Cc1ccc(O)cc1)C(N)=O)[C@@H](C)O)C(C)C)[C@@H](C)O, h-amylin derivative, N-terminally extended by one residue; disulfide bridge and C-terminal amide as told for human amylin; also called compound 45)
6 | 4.35 | K([AEEA-γGlu-C20 diacid])CNTATCATQRLANFLRHSSPNFGAIPSSTNVGSNTY-NH2 (disulfide 2-7; N-terminus assumed; SMILES CC[C@H](C)[C@H](NC(=O)[C@H](C)NC(=O)CNC(=O)[C@H](Cc1ccccc1)NC(=O)[C@H](CC(N)=O)NC(=O)[C@@H]1CCCN1C(=O)[C@H](CO)NC(=O)[C@H](CO)NC(=O)[C@H](Cc1c[nH]cn1)NC(=O)[C@H](CCCNC(=N)N)NC(=O)[C@H](CC(C)C)NC(=O)[C@H](Cc1ccccc1)NC(=O)[C@H](CC(N)=O)NC(=O)[C@H](C)NC(=O)[C@H](CC(C)C)NC(=O)[C@H](CCCNC(=N)N)NC(=O)[C@H](CCC(N)=O)NC(=O)[C@@H](NC(=O)[C@H](C)NC(=O)[C@@H]1CSSC[C@H](NC(=O)[C@@H](N)CCCCNC(=O)COCCOCCNC(=O)CC[C@H](NC(=O)CCCCCCCCCCCCCCCCCCC(=O)O)C(=O)O)C(=O)N[C@@H](CC(N)=O)C(=O)N[C@@H]([C@@H](C)O)C(=O)N[C@@H](C)C(=O)N[C@@H]([C@@H](C)O)C(=O)N1)[C@@H](C)O)C(=O)N1CCC[C@H]1C(=O)N[C@@H](CO)C(=O)N[C@@H](CO)C(=O)N[C@H](C(=O)N[C@@H](CC(N)=O)C(=O)N[C@H](C(=O)NCC(=O)N[C@@H](CO)C(=O)N[C@@H](CC(N)=O)C(=O)N[C@H](C(=O)N[C@@H](Cc1ccc(O)cc1)C(N)=O)[C@@H](C)O)C(C)C)[C@@H](C)O, h-amylin derivative; disulfide bridge and C-terminal amide as told for human amylin; also called compound 41)
